Laboratory results published in the DeepSol protein solubility set.

Assay: soluble on expression in E. coli; label from the status in PepcDB or PDB records

Row | Sequence | soluble on expression in E. coli
1 | MGHHHHHHSHMVTASRYYPQLMSLVGNVLRFLPAFVRMKQLISEHYVGAVMICDARIYSGSLLSPSYGWICDELMGGGGLHTMGTYIVDLLTHLTGRRAEKVHGLLKTFVRQNAAIRGIRHVTSDDFCFFQMLMGGGVCSTVTLNFNMPGAFVHEVMVVGSAGRLVARGADLYGQKNSATQEELLLRDSLAVGAGLPEQGPQDVPLLYLKGMVYMVQALRQSFQGQGDRRTWDRTPVSMAASFEDGLYMQSVVDAIKRSSRSGEWEAVEVLTEEPDTNQNLCEALQRNNL | not soluble
2 | GPGSMIGLYRVVQFVHLTFFSTGHDLKRRYSKAGDWAVVTGGTEGIGRAVALDLANRGFNVCVISRTQSKLDEVVAEIEKCGTRGHSIAFDFATAGEAEYKMLFAKLDSLAVGLLVNNVGVNYTYANYFDEADVVDDLRIIKVNCEATTRMTKFFAPRMKARRAGGIVLLGSFSAVTPAPLLATYAGTKAFNVSFGDALFYELKKFGVDVLVVTPNLVVSRMTQGASTRAPKETFLTVGAAAMARQTLNQLGVVNRTAGHRNHIIIEAIARLLPESLRGEKMLAMHESIKKRAERKAKQ | not soluble
3 | MGSDKIHHHHHHMCYTPACLFSRVLHSSTRWRGGRVVECVALEKRSTRKGTVGSNPTLFAKKEAPRPAQQAGFSFVDSVSQVSGAAIVQPMTRFAWTPETIPWQETAPDGTRYALLEGVREAGTFTYAFFLPAGFWDEAHWHSTDARVFVMQGELRLGYGDRLDKEAATSYPAGSALLVPAEHRHHDGAEVDTLILGVASGSWFTRYVNSANQGSAGTV | not soluble
4 | MNQYLAVTSNGMENLLVEELTKLGIENAKPVQAGVKFKATNEQIYRCCLWSRLASRFVRVLSEFTCNDDMDLYLSTSSINWVNQFHSSKRFVVDFNGTNREIRNSQYGAMKVKDGIVDCFEKKGLPRPNISKERPDIRVHVRLHKDKAILGVDMVGSGLHQRGYRPESGRAPLRETLAAAIIMRCGWDGHQPLLDPMCGSGTLLIEAAMMAANMAPGVKRKQWCFESLEDFEPDTWAEIKSEANVQARRGVKKVDAKFFGFDNDPKVLKVAQENARRAGVEELIEFAQGDVATITRLSGFENGVIVSNPPYGERLGTEPGLIALYTAFGGQLKAEFGGCKASIFSSSDELLSCLRMRADKQFKLNNGALPCHQKNYSIAERSADEVKGADTNTQIAPDFSNRLKKNIGKIGKWARKEKLDCYRIYDADLPEYNVAIDVYGDQIVIQEYAAPKNIPEEKAKRRLTDIIRATIQVTGVEANKVVLKVREKQKGRSQYQK | not soluble
5 | MGSDKIHHHHHHMSVPLRAVQLTEPSLFLQEHPEVQFVDLLISDMNGVVRGKRIERNSLPKVFEKGINLPASLFALDITGSTVESTGLGLDIGDADRICYPIPGTLSMEPWQKRPTAQLLMTMHELEGEPFFADPREVLRQVVARFTEMELTIVAAFELEFYLIDQENVNGRPQPPRSPISGKRPQSVQVYSIDDLDEYVECLQDIIDGARAQGIPADAIVAESAPAQFEVNLHHVADPMKACDYAVLLKRLIKNIAYDHEMDTTFMAKPYPGQAGNGLHVHISLLDKHGNNIFTSEDPEQNAALRHAIGGVLETLPASMAFLCPNVNSYRRFGSQFYVPNAPSWGLDNRTVALRVPTGSPDAVRLEHRVAGADANPYLLLASVLAGVHHGLTNKVEPGAPIEGNSYEQLEPSLPNNLRDALRELDDSEILAKYIDPKYIDIFVACKESELEEFEYSISDLEYNWYLHTV | not soluble
6 | MPSLLLLGAGHAHMTVMEAIPRLIERGHSVTVVGPGERHYYSGMGPGMLGGHYSPEDISFPVRQMVTQRGGTFITARATRIDPQRKHVVLDSGQELAYDVCSCNTGSHVPSSIVDGDATDVFPVKPIENLLAGRESIRRRASRGPVRIAVVGGGPAALEVAGNAAAALTQTGAQGNVAMYAGSSFLRRFPARVRELARKELQKARVKLHEGAYASAVHTGEVVLDNGERYEADIIFTALGVVPSPLFAASGLPVGKDGGLAVDAHLRCTEYDDIFGGGDCIWFTPQPLAKVGVYAVRQNPVLLHNLAARLEGGPLLTFSPGGEYLLIFNTGSGRGILHKAGFTFAGRLAFMVKDWIDRRFIRRFQPHLEHHHHHH | not soluble
7 | HMVTLYTSPSSTSCRKARAWLEEHEIPFVERNIFSEPLSIDEIKQILRMTEDGTDEIISTRSKVFQKLNVNVESMPLQDLYRLINEHPGLLRRPIIIDEKRLQVGYNEDEIRRFLPRKVRSFQLREAQRLAN | soluble
8 | MGSDKIHHHHHHMYMYVNDKLVKEEEAIISPFDHGYMYGLGLFETFRLYEGHPFLLDDHFVRLEEGLRALAIDWTYNRSHVLHQLATLCNKNGVRNAYIRWNVSAGPGPIGLYTDTYKEPTVIIYMKSLPQGLSTRKTGTLLELRRNTPEGDRRLKSHHFLNNVLGKREVAKDPQTEGIFLTEDGVLAEGLTSNVFWVKNGVVYTPSVDTGILNGITRQFVLTLCDKEGIPWREGRYPKEALLKADGAFITNSIQEIVTLTSVGQAEFNQDEAVIMSLRKSYQKYCTKLWSKNEIKEGKQDVNNTCK | not soluble
9 | MRGENTMTPVFELKNVNYYYDHKKVLENINIKINKGEFLAIVGPNGAGKSTLLKLILGLLPLQSGEIFVEGIDFKNKKTSIKLSYVSQKANAFNSGFPASVKEVVLSGLTKTKRLFQTFNSKDNEKVIKVLERLNISDLIHKNIAELSGGQQQRVMIARALISEPAVLVLDEPTNGIDAKHVSEFYNTLDQLKQEGITIILVTHDIGVVADTATEVACLNKHLHFHGTTDEFKSLDEVEISKIYGHPVRFVDHQHNRECCN | not soluble
10 | MSLEGEQHSRERDQQAIQYHYDVSNDFYKLWLDERMVYSCAYFPGGQETLDEAQTAKLDYICRKLQLRPGERLLDIGCGWGGLSLYAAQHYGVQVLGVTLSQAQLQEGQARVRVAGLEGQVQLELRDYRDVLSRGPAQFDKIASVGMAEHVGRRNMPEYFRSAYAALKPGGLMLNHAIGDGIGQARVPMWLQSGNFARKYVFPDGELLPVWETLKYASEQLFEVRDVENLREHYALTIGHWAARLEAHRPEALALLGEERLRLWRLYLGATSYYFRKGHLTLFQSLLAKPDAERAVPLPLSRAGLYREGHHHHHH | soluble
11 | MLSTSASLYLNELINEMRQLSETPIDCKNARMLLSKEISKVFDELYRHGQGFIDNGYGSDYNKNDFYSPHSANSGYSASPFPSRPSLPNHALSTSFYHNSFMTPIRNGRMRSPDQDLGDWSREKINDTQHVLQTKVYIPEPPVSIDGKKVKCNYIGRILGPSGMSARMIENQYDVTLLIRGAGSVRNKAMDERVRKRNEHLEEPLHVLLIARHNDKTKCEEILNKAAEKIESLLTPIHDEYKMDQLVSYAKMNGTYQERPKRKSQLDEQSHSNYWAPH | not soluble
12 | MKEVIAQNAKLSADDLKEILPKANKLEDFAFEKNEDSTISEVFQAKNGSENEGYIIKVSPKGFNGPIDMVVAIDKNREISGVKVLSQAETPGLGAKVEESSFSEKFKGLTIEDNIKIVKTSPSSQGEIQGITGATISSNAVSSGINDAISFYKENVLGEDLSKEKILNLSKINLEGDLKELTIELEEGIDKVSIVSNGEKEIGYAIEASEVGMYEEKPIKFALGISTGGIITGVQIIDHKETAGLGDLIEDENFLNSFIGVSSLDKLSVKENTNEIDLSVYGEVVNVDSISGATKSSMAIIKGITNVINFYNNNLSLEHHHHHH | soluble
13 | MVIATIQAEDHSQQSGTQQETTTDTGGGKNVGYIDAGDWLSYAGTPVNIPSSGSYLIEYRVASQNGGGSLTFEEAGGAPVHGTIAIPATGGWQTWTTIQHTVNLSAGSHQFGIKANAGGWNLNWIRINKTH | soluble
14 | MGSDKIHHHHHHGIKNGLKEEPKINVGIKGGFNSSMYFTSRLELDGERMEDVQNNYKVGYFAAMFFRVHMKRHFIQPEIMYNIYKGEIAFNKNQNKENTLPELAKLNSTIHSLELPILYGYSFVKSRPYGMALFIGPKLEYVWKHKTSEEFEGFGYSGIKEELHPINISSVIGLGVNIANIFFDFRYEIGLTNISKSIIYKKDTDGIMSQEKGIFINRHRNVLSFSLGVIF | not soluble
15 | MTIRINNISLDINEDLSLLKNKVAKKLRMSKDEIGDIKIIKESLDARKKNLIKFNYCINIEHEDEEKIVARLNDKDVKIDKVNYDFDFNFGEKKLQHRPVVIGLGPAGLFAALLLAKKGFNPIVFERGEDVDSRTKTVEEFWRTGELNPESNVQFGEGGAGAFSDGKLTTRIKDTRCDYVLDALVRNGAPEEIIYKGKPHVGTDILKNVVKNIREEIKRHGGEVHFNSRFEGIIKKDNKLKGIKVNGEEVPCEVAILALGHSSRDTYEMLFNEGVFMKQKPFAIGVRIEHPQEIINLSQYGEKYANHPRLKAAEYRLAYQSKTLDRAVYSFCMCPGGVVVNASSEEKRLCVNGMSYHARDKENANSALVVTVGPNDFGGDHPLEGMKFQRHYEELAFKLGGGNYNTPVQLVGDFMKDRVTTKLGKVNPSVLSNGYRFEDLRKCLPSYVIDGLKEGITDFDRKIKGFGHSDSVLTGIETRTSAPVRIERNEKLQSISLEGLYPAGEGAGFAGGIVSAAVDGLKVAENIMKEYRVLEHHHHHH | not soluble
16 | MGSDKIHHHHHHMKKKFQLEVPGGADKVLLHTCCAPCSSAIIECLMQHGVTPVIYYCNPNIYPLEEYIIRKDECTRYAQSLGLEIIDADYDHDAWRCRMAGMEQEPERGGRCLRCFKMRLQETARYAHEHGFPVITTTLASSRWKSLEQIEEAGRYATAPYPDVTYWEQNWRKGGLSERRIAIIKEYNFYNQQYCGCEFSMRKEEKGG | not soluble
17 | MQYKDENGVNEPSRRRLLKVIGALALAGSCPVAHAQKTQSAPGTLSPDARNEKQPFYGEHQAGILTPQQAAMMLVAFDVLASDKADLERLFRLLTQRFAFLTQGGAAPETPNPRLPPLDSGILGGYIAPDNLTITLSVGHSLFDERFGLAPQMPKKLQKMTRFPNDSLDAALCHGDVLLQICANTQDTVIHALRDIIKHTPDLLSVRWKREGFISDHAARSKGKETPINLLGFKDGTANPDSQNDKLMQKVVWVTADQQEPAWTIGGSYQAVRLIQFRVEFWDRTPLKEQQTIFGRDKQTGAPLGMQHEHDVPDYASDPEGKVIALDSHIRLANPRTAESESSLMLRRGYSYSLGVTNSGQLDMGLLFVCYQHDLEKGFLTVQKRLNGEALEEYVKPIGGGYFFALPGVKDANDYFGSALLRV | soluble
18 | MVKEFNTQTELSVRLEALWAVLSKDFITVVPKVLPHIVKDVQLIEGDGGVGTILIFNFLPEVSPSYQREEITEFDESSHEIGLQVIEGGYLSQGLSYYKTTFKLSEIEEDKTLVNVKISYDHDSDIEEKVTPTKTSQSTLMYLRRLERYLSNGSA | soluble
19 | SGGPGTKSGEPLCPPLLCNQDKETLTLLIQVPRIQPQSLQGDLNPLWYKLRFSAQDLVYSFFLQFAPENKLSTTEPVISISSNNAVIELAKSPESHGHWREWYYGVNNDSLELQECSNSDQLQGKEERVNEESHLTEKEYIEHCNTPTTDSDSSIAVKALQIDSFGLVTCFQQESLDVSQMILGKSQQPESKMQSEFIKEKSATCSNEEKDNLNESVITEEKETDGDHLSSLLNKTTVHNIPGFDSIKETNMQDGSVQVIKDHVTNCAFSFQNSLLYDLD | soluble
20 | GHMIMANWQSIDELQDIASDLPRFIHALDELSRRLGLNITPLTADHISLRCHQNATAERWRRGFEQCGELLSENMINGRPICLFKLHEPVQVAHWQFSIVELPWPGEKRYPHEGWEHIEIVLPGDPETLNARALALLSDEGLSLPGISVKTSSPKGEHERLPNPTLAVTDGKTTIKFHPWSIEEIVASEQSA | soluble
21 | MSLTSEEERAEQAMAAISQIEPTRRLFVWTLTHGIVEYGSARAPAQHNTVSPQAAIEWVVRRGEPGIFIFKDLHPFIDLAPVKRWLRDAVAGFKGTDKVLVLMSPIQQIPTELEKEVVVVEFPLPGPGELNELLNVHLSQAPDKLRILSDAGREKMVKAALGLTKDEADKVYRKAEVVSGRLTEAEVDIVLSEKKQIIKRNGILEYLEFDDEGHHHHHH | not soluble
